Reference: US20200262877A1, “ION CHANNEL-BINDING PEPTIDES AND METHODS OF USE THEREOF” (priority 2017, published 2020)

Legend:
5HT3a = target: T1, 5HT3a (Homo sapiens, UniProt P46098); assay: Ion channel panel (IonWorks Barracuda): 5HT3a; type: cell-based
T1 construct: host or cells: HEK293 or CHO
T1 sequence (P46098 whole entry, looked up): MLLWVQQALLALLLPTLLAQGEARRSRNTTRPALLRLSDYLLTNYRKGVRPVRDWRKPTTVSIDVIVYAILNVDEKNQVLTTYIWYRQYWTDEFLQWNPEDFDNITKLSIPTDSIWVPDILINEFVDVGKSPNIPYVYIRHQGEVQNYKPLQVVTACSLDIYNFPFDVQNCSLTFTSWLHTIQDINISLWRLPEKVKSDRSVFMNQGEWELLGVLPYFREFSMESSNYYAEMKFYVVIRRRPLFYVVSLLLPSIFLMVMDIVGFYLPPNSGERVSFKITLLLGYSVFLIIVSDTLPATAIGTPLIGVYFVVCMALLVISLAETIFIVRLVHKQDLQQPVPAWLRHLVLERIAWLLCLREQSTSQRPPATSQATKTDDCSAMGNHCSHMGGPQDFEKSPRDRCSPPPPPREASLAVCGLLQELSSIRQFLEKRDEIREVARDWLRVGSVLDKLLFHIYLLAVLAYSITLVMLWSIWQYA
Summary of the method: (§1)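 Transfected HEK293 or CHO cells were exposed for at least 5 min to peptides at 200 nM and 20 μM final, tested in duplicate, in HEPES-buffered physiological saline. Activation was taken as peptide-plus-agonist current over control current ×100, and inhibition as 1 minus that ratio ×100. Each channel's control was its own reference compound.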

hERG = hERG (Homo sapiens, UniProt Q12809); assay: in vitro; conditions: 100% = no change, <100% = inhibition
Summary of the method: as §1

Nav1.5 = Nav1.5 (Homo sapiens, UniProt Q14524); assay: in vitro; conditions: 100% = no change; for Activity of Nav1.5 with peptide, expressed as a percentage of the reference compound: peptide at 0.2 μM; for Activity of Nav1.5 with peptide (percentage of the reference compound): peptide at 20 μM
Summary of the method: as §1

NR2B = target: T2, NR2B (Homo sapiens, UniProt Q13224); assay: Ion channel panel (IonWorks Barracuda): NR2B; type: cell-based; conditions: 100% = no change, <100% = inhibition
T2 construct: host or cells: HEK293 or CHO
Summary of the method: as §1

Kv1.2 = target: T3, Kv1.2 (Homo sapiens, UniProt P16389); assay: cell-based; type: cell-based; conditions: 100% = no change, <100% = inhibition
T3 construct: host or cells: HEK293 or CHO
Summary of the method: as §1

Kv1.1 = target: T4, Kv1.1 (Homo sapiens, UniProt Q09470); assay: cell-based; type: cell-based; conditions: 100% = no change, <100% = inhibition
T4 construct: host or cells: HEK293 or CHO
Summary of the method: as §1

Kv1.3 = target: T5, Kv1.3 (Homo sapiens, UniProt P22001); assay: cell-based; type: cell-based; conditions: 100% = no change, <100% = inhibition
T5 construct: host or cells: HEK293 or CHO
Summary of the method: as §1

Kir2.1 = target: T6, Kir2.1 (Homo sapiens, UniProt P63252); assay: Ion channel panel (IonWorks Barracuda): Kir2.1; type: cell-based; conditions: 100% = no change, <100% = inhibition
T6 construct: host or cells: HEK293 or CHO
Summary of the method: as §1

α4β2 = target: T7, α4β2 (Homo sapiens, UniProt P17787+P43681); assay: Ion channel panel (IonWorks Barracuda): α4β2; type: cell-based; conditions: 100% = no change, <100% = inhibition
T7 construct: host or cells: HEK293 or CHO
Summary of the method: as §1

Kv2.1 = target: T8, Kv2.1 (Homo sapiens, UniProt Q14721); assay: cell-based; conditions: 100% = no change, <100% = inhibition
T8 construct: host or cells: HEK293 or CHO
Summary of the method: as §1

Cav2.1 = target: T9, Cav2.1 (Homo sapiens, UniProt O00555); assay: cell-based; conditions: 100% = no change, <100% = inhibition
T9 construct: host or cells: HEK293 or CHO
Summary of the method: as §1

Cav2.2 = target: T10, Cav2.2 (Homo sapiens, UniProt Q00975); assay: cell-based; conditions: 100% = no change, <100% = inhibition
T10 construct: host or cells: HEK293 or CHO
Summary of the method: as §1

GABA = assay: Ion channel panel (IonWorks Barracuda): GABA; type: cell-based; conditions: 100% = no change, <100% = inhibition
Summary of the method: as §1

Nav1.7 = target: T11, Nav1.7 (Homo sapiens, UniProt Q15858); assay: cell-based; type: cell-based; conditions: 100% = no change; for Activity of Nav1.7 with peptide, expressed as a percentage of the reference compound: peptide at 0.2 μM; for Activity of Nav1.7 with peptide (percentage of the reference compound): peptide at 20 μM
T11 construct: host or cells: HEK293 or CHO

TRPV1 = target: T12, TRPV1 (Homo sapiens, UniProt Q8NER1); assay: Ion channel panel (IonWorks Barracuda): TRPV1; type: cell-based; conditions: 100% = no change, <100% = inhibition
T12 construct: host or cells: HEK293 or CHO
Summary of the method: as §1

α3β4 = target: T13, α3β4 (Homo sapiens, UniProt P30926+P32297); assay: Ion channel panel (IonWorks Barracuda): α3β4; type: cell-based; conditions: 100% = no change, <100% = inhibition
T13 construct: host or cells: HEK293 or CHO
Summary of the method: as §1

TRPA1 = target: T14, TRPA1 (Homo sapiens, UniProt O75762); assay: Ion channel panel (IonWorks Barracuda): TRPA1; type: cell-based; conditions: 100% = no change, <100% = inhibition
T14 construct: host or cells: HEK293 or CHO
Summary of the method: as §1

NR2A = target: T15, NR2A (Homo sapiens, UniProt Q12879); assay: Ion channel panel (IonWorks Barracuda): NR2A; type: cell-based; conditions: 100% = no change, <100% = inhibition
T15 construct: host or cells: HEK293 or CHO
Summary of the method: as §1

[1] = first of two Nav1.5 columns (probably TP1)
[2] = second of two Nav1.5 columns (probably TP2)
[3] = first of two Nav1.7 columns (probably TP1)
[4] = second of two Nav1.7 columns (probably TP2)

Chain of Nav1.5 (Q14524 whole entry): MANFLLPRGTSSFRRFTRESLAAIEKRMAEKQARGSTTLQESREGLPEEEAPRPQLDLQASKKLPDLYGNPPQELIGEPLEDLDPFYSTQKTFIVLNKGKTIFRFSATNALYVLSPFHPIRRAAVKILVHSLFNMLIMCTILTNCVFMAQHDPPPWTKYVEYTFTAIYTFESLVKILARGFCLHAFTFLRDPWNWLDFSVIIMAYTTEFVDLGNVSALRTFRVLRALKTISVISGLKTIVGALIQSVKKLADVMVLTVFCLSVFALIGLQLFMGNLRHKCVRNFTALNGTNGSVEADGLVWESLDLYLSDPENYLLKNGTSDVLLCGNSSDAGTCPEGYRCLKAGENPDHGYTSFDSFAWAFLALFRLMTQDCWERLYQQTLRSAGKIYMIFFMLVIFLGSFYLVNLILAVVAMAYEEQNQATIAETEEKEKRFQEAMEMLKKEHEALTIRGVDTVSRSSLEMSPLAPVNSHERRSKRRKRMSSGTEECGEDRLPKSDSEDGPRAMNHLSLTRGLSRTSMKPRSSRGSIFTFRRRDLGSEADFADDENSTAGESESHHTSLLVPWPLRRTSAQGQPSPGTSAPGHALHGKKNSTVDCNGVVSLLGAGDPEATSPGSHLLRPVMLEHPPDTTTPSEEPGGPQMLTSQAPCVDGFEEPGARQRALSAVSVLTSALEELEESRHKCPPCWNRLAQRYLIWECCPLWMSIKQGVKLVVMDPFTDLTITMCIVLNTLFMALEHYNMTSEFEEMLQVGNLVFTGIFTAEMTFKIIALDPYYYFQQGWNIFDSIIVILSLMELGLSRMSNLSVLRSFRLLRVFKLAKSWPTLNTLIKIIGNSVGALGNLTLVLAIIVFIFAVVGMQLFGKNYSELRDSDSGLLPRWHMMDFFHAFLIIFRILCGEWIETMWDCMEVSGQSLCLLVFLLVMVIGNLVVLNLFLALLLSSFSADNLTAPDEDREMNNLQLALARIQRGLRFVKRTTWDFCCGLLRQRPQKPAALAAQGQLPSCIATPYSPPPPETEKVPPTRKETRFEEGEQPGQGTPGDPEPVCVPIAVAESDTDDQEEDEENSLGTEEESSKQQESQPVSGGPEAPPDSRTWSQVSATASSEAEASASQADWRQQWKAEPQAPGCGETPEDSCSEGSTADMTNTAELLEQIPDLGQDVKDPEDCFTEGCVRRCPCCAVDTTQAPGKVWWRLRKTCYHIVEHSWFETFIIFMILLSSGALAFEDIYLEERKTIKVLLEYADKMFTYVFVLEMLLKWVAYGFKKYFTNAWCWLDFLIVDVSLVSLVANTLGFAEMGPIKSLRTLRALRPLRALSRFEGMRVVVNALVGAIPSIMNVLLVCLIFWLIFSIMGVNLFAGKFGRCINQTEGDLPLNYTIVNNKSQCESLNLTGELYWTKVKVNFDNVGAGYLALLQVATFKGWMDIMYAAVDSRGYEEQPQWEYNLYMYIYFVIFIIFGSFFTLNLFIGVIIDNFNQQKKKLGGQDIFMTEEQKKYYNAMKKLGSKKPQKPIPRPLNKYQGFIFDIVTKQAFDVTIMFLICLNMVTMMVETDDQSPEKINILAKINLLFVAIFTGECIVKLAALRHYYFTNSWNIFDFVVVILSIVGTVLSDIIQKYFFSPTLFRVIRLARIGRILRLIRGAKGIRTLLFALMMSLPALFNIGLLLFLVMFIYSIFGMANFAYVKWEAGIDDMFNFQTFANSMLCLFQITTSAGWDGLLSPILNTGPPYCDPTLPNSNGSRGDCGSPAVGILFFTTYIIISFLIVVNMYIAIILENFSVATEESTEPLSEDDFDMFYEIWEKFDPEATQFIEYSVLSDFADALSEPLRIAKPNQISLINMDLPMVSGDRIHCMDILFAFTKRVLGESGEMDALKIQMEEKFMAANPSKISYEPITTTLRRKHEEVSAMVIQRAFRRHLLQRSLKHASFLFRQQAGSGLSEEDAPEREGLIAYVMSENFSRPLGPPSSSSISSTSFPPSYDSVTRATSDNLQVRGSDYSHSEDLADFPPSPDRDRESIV
T11 sequence (Q15858 whole entry): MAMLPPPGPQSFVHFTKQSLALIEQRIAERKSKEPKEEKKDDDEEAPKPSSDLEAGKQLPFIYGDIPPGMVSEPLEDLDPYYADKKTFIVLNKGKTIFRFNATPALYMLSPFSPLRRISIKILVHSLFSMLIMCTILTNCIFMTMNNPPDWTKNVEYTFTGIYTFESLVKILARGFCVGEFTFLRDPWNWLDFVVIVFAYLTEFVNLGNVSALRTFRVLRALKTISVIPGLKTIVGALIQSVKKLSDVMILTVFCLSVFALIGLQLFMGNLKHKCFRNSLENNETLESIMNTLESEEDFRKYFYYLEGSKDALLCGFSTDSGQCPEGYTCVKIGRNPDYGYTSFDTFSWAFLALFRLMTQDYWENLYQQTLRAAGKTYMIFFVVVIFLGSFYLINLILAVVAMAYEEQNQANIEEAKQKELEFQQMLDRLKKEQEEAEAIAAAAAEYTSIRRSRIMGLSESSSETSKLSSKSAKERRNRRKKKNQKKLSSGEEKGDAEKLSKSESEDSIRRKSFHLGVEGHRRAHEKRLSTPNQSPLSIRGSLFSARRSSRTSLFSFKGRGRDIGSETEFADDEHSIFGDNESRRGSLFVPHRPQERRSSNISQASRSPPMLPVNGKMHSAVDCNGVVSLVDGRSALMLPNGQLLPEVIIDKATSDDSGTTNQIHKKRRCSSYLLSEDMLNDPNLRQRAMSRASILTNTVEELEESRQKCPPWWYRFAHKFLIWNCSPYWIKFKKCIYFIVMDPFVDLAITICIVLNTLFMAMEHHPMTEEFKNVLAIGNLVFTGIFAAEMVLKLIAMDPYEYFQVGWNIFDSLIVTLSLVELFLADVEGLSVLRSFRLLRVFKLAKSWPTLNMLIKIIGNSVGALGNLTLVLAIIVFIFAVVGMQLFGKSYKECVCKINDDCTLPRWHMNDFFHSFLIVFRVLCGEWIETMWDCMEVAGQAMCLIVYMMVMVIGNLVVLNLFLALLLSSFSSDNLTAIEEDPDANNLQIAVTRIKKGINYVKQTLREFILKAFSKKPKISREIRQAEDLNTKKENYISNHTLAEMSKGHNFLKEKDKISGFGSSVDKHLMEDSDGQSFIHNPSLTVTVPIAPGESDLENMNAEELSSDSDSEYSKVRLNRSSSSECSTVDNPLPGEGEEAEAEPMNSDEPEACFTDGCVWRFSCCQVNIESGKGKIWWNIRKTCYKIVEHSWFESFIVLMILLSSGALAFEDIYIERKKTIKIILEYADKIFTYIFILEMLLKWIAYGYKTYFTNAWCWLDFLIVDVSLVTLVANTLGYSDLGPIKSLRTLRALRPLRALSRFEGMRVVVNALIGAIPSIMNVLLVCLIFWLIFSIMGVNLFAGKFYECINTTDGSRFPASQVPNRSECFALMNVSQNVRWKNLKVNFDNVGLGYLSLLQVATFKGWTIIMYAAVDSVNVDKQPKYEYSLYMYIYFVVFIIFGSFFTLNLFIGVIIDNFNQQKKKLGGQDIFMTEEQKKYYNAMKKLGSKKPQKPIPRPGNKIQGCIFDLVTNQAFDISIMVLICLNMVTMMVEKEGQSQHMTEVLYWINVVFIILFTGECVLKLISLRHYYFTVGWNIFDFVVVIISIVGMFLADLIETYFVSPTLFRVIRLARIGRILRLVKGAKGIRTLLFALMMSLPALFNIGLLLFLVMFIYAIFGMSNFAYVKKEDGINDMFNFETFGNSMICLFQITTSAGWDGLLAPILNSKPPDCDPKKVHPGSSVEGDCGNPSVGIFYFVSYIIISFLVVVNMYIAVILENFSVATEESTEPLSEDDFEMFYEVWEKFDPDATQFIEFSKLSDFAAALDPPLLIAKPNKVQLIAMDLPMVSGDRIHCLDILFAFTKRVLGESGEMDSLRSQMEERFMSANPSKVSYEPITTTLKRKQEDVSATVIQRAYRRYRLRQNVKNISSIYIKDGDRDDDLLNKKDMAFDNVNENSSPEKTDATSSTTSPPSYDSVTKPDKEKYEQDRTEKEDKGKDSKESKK
T6 sequence (P63252 whole entry): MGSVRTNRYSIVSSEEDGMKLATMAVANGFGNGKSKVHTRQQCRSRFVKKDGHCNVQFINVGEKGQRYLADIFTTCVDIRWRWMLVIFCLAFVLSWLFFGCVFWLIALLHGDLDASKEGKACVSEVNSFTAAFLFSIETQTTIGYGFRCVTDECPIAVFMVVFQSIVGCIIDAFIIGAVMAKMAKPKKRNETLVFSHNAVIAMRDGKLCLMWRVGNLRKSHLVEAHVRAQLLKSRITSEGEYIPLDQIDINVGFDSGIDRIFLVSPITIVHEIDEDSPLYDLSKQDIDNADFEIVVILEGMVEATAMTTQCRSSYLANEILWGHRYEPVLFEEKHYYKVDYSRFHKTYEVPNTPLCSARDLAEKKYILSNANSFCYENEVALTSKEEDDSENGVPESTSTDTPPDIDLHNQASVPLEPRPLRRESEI
T5 sequence (P22001 whole entry): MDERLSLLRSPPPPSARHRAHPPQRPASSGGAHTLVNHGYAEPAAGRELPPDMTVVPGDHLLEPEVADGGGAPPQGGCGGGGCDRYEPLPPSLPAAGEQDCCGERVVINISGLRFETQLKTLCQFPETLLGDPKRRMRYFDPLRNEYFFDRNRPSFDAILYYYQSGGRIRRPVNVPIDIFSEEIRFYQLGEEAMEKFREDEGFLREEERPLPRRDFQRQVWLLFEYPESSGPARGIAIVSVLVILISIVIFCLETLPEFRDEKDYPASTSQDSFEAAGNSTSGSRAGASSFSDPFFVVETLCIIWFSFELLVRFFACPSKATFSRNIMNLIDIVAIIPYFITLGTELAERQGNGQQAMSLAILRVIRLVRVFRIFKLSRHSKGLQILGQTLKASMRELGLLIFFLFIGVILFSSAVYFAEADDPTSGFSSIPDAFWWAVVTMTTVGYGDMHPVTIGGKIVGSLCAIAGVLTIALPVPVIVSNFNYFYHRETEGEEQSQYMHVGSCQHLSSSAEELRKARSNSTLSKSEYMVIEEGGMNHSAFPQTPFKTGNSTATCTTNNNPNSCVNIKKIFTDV

In the case of “30 (GSQVSTNKKCSNTSQCYKTCEKVVGVAAGKCMNGKCICYP) [compound 30]”, the “Activity of 5HT3a with peptide (percentage of the reference compound)” value (5HT3a) is reported as 91%, the “Activity of 5HT3a with peptide, expressed as a percentage of the reference compound” value (5HT3a) is reported as 71% and the “Activity of hERG with peptide, expressed as a percentage of the reference compound” value (hERG; peptide at 0.2 μM) is reported as 95%. For the same substance, the “Activity of hERG with peptide (percentage of the reference compound)” value (hERG; peptide at 20 μM) was 95%, the “Activity of Nav1.5 with peptide, expressed as a percentage of the reference compound” value (Nav1.5; [1]) was 105% and the “Activity of Nav1.5 with peptide, expressed as a percentage of the reference compound” value (Nav1.5; [2]) was 102%. The “Activity of Nav1.5 with peptide (percentage of the reference compound)” value (Nav1.5; [1]) was 94%, the “Activity of Nav1.5 with peptide (percentage of the reference compound)” value (Nav1.5; [2]) was 96% and the “Activity of NR2B with peptide, expressed as a percentage of the reference compound” value (NR2B; peptide at 0.2 μM) was 92%. For the same substance, the “Activity of NR2B with peptide (percentage of the reference compound)” value (NR2B; peptide at 20 μM) was 88%, the “Activity of Kv1.2 with peptide, expressed as a percentage of the reference compound” value (Kv1.2; peptide at 0.2 μM) was 110% and the “Activity of Kv1.2 with peptide (percentage of the reference compound)” value (Kv1.2; peptide at 20 μM) was 92%. The “Activity of Kv1.1 with peptide, expressed as a percentage of the reference compound” value (Kv1.1; peptide at 0.2 μM) was 98%, the “Activity of Kv1.1 with peptide (percentage of the reference compound)” value (Kv1.1; peptide at 20 μM) was 102% and the “Activity of Kv1.3 with peptide, expressed as a percentage of the reference compound” value (Kv1.3; peptide at 0.2 μM) was 89%. For the same substance, the “Activity of Kv1.3 with peptide (percentage of the reference compound)” value (Kv1.3; peptide at 20 μM) was 71%, the “Activity of Kir2.1 with peptide, expressed as a percentage of the reference compound” value (Kir2.1; peptide at 0.2 μM) was 102% and the “Activity of Kir2.1 with peptide (percentage of the reference compound)” value (Kir2.1; peptide at 20 μM) was 93%. The “Activity of a4b2 with peptide, expressed as a percentage of the reference compound” value (α4β2; peptide at 0.2 μM) was 89%, the “Activity of a4b2 with peptide (percentage of the reference compound)” value (α4β2; peptide at 20 μM) was 92% and the “Activity of Kv2.1 with peptide, expressed as a percentage of the reference compound” value (Kv2.1; peptide at 0.2 μM) was 107%. The “Activity of Kv2.1 with peptide (percentage of the reference compound)” value (Kv2.1; peptide at 20 μM) was 106%, the “Activity of Cav2.1 with peptide, expressed as a percentage of the reference compound” value (Cav2.1; peptide at 0.2 μM) was 111% and the “Activity of Cav2.1 with peptide (percentage of the reference compound)” value (Cav2.1; peptide at 20 μM) was 103%. The “Activity of Cav2.2 with peptide, expressed as a percentage of the reference compound” value (Cav2.2; peptide at 0.2 μM) was 96%, the “Activity of Cav2.2 with peptide (percentage of the reference compound)” value (Cav2.2; peptide at 20 μM) was 101% and the “Activity of GABA with peptide, expressed as a percentage of the reference compound” value (GABA; peptide at 0.2 μM) was 102%. The “Activity of GABA with peptide (percentage of the reference compound)” value (GABA; peptide at 20 μM) was 114%, the “Activity of Nav1.7 with peptide, expressed as a percentage of the reference compound” value (Nav1.7; [3]) was 103% and the “Activity of Nav1.7 with peptide, expressed as a percentage of the reference compound” value (Nav1.7; [4]) was 125%. The “Activity of Nav1.7 with peptide (percentage of the reference compound)” value (Nav1.7; [3]) was 84%, the “Activity of Nav1.7 with peptide (percentage of the reference compound)” value (Nav1.7; [4]) was 54% and the “Activity of TRPV1 with peptide, expressed as a percentage of the reference compound” value (TRPV1; peptide at 0.2 μM) was 107%. The “Activity of TRPV1 with peptide (percentage of the reference compound)” value (TRPV1; peptide at 20 μM) was 84%, the “Activity of a3b4 with peptide, expressed as a percentage of the reference compound” value (α3β4; peptide at 0.2 μM) was 91% and the “Activity of a3b4 with peptide (percentage of the reference compound)” value (α3β4; peptide at 20 μM) was 101%. For the same substance, the “Activity of TRPA1 with peptide, expressed as a percentage of the reference compound” value (TRPA1; peptide at 0.2 μM) was 118%, the “Activity of TRPA1 with peptide (percentage of the reference compound)” value (TRPA1; peptide at 20 μM) was 111% and the “Activity of NR2A with peptide, expressed as a percentage of the reference compound” value (NR2A; peptide at 0.2 μM) was 111%. For the same substance, the “Activity of NR2A with peptide (percentage of the reference compound)” value (NR2A; peptide at 20 μM) was 98%.
